Results published in patent publication US20210032365A1 (Chugai, published 2021).

T1: human C1s (human, UniProt P09871 16-688)
T1 construct: Analyte in the Biacore assays; also called hC1s; serum-derived human C1s (CompTech)
T1 sequence: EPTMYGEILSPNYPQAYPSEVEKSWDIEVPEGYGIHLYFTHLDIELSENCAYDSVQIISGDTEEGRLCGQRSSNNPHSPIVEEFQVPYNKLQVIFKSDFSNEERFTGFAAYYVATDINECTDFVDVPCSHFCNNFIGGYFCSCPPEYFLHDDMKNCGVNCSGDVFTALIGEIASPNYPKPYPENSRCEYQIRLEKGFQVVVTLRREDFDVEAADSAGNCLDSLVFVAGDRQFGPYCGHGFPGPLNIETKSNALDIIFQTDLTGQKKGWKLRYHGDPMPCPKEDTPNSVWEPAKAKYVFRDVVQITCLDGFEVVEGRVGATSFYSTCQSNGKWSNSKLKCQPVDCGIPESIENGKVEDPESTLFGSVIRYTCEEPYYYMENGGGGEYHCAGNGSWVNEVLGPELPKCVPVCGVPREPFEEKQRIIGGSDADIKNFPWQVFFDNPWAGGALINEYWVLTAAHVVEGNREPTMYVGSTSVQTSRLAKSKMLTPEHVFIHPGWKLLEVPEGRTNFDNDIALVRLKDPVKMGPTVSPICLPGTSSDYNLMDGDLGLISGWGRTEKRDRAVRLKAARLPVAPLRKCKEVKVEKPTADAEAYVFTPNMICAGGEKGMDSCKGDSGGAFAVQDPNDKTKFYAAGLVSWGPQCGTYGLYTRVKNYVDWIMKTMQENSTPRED


Experiments:
[1] = target: T1, human C1s; assay: SPR (Biacore T200, 37C), Ab captured on protein A/G; pH 5.8, 1.2 mM Ca
Method: (§1) Each antibody was captured onto the sensor surface by protein A/G. Antibody capture levels were aimed at 200 resonance unit (RU). Serum-derived human C1s (CompTech) or recombinant C1s prepared in EXAMPLE 1 was injected at 50 nM, followed by dissociation. The sensor surface was regenerated in each cycle with 10 mM Glycine-HCl, pH 1.5. […] The ratio of KD 5.8+ to KD 7.4+(“KD 5+/7+”) and that of KD 5.8− to KD 7.4+(“KD 5−/7+”) were calculated. When the KD 5+/7+ or KD 5−/7+ of a variant is larger than that of the parent antibody IPN009VH2-SG4GK/IPN009VK3-SK1, that variant is considered to be “pH”- or “pH and Ca”-dependent, respectively. When binding response in 5(+) buffer and/or in 5(−) buffer of a variant is much lower than that of IPN09VH2/IPN009VK3, that variant is also considered as “pH”- and/or “pH and Ca”-dependent. Therefore, such mutations are effective to generate “pH”- and/or “pH and Ca”-dependent antibody. To further enhance “pH” and/or “pH and Ca” dependency, a combination of histidine mutations was conducted. Antibodies with combinations of histidine mutations were evaluated using Biacore by the method described above.
(§2) C1_1IPN92H0033 (SEQ ID NO: 17)-SG4GK/IPN93L0024 (SEQ ID NO: 18)-SK1 (IPN92H0033/IPN93L0024) was selected for further optimization. Histidine, Lysine, Arginine, aspartic acid, glutamic acid, and glutamine scanning was conducted for CDRs and certain positions of FRs of IPN92H0033/IPN93L0024. Variants with a mutation were generated and purified, and evaluated using Biacore by the method mentioned above. All variants were evaluated using Biacore as mentioned above. Mutations that improved “pH” and/or “pH and Ca” dependency were selected for the combination.

[2] = target: T1, human C1s; assay: SPR; KD at pH 5.8 (3 uM Ca) over KD at pH 7.4 (1.2 mM Ca)
Method: as §1, §2

[3] = target: T1, human C1s; assay: SPR; KD at pH 5.8 (1.2 mM Ca) over KD at pH 7.4 (1.2 mM Ca)
Method: as §1, §2

[4] = target: T1, human C1s; assay: SPR (Biacore T200, 37C), Ab captured on protein A/G; pH 5.8, 3 uM Ca
Method: as §1, §2

koff [1] [s⁻¹]	kon [1] [M⁻¹ s⁻¹]	KD 5(-)/7(+) [2]	KD 5(+)/7(+) [3]	Kd [1] [nM]	Kd [4] [nM]	koff [4] [s⁻¹]	kon [4] [M⁻¹ s⁻¹]	Binder
0.0045	519000	1.83	3	–	–	–	–	C1_IPN92H0033-SG4GK/IPN93L0024-SK1 (antibody, human IgG4 S228P, kappa, VH Y99H, VL P95H against the parent (Kabat); also called IPN92H0033/IPN93L0024) heavy: not shown light: QIVLTQSPATLSLSPGERATLSCTASSSVSSSYLHWYQQKPGKAPKLWIYSTSNLASGVPSRFSGSGSGTDYTLTISSLQPEDFATYYCHQYYRLHPITFGQGTKLEIKRTVAAPSVFIFPPSDEQLKSGTASVVCLLNNFYPREAKVQWKVDNALQSGNSQESVTEQDSKDSTYSLSSTLTLSKADYEKHKVYACEVTHQGLSSPVTKSFNRGEC
0.00529	530000	4.18	6.7	9.12	5.72	0.00553	967000	C1_IPN92H0033-SG4GK/IPN93L0072-SK1 (antibody, human IgG4 S228P, kappa, name in Kabat numbering, V domains shown, VL substitutions from IPN009VK3, Kabat numbering; also called IPN92H0033/IPN93L0072) VH: EVMLVESGGGLVKPGGSLRLSCAASGFTFSNYAMSWVRQAPGKGLEWVATISSGGSHTYYLDSVKGRFTISRDNSKDTLYLQMNSLRAEDTALYYCARLFTGHAMDYWGQGTLVTVSS VL: QIVLTQSPATLSLSPGERATLSCTASSSVKSSYLHWYQQKPGKAPKLWIYSTSNLASGVPSRFSGSGSGTDYTLTISSLQPEDFATYYCHQYYRLHPITFGQGTKLEIKR
0.0055	577000	5.13	6.8	9.52	7.18	0.00427	595000	C1_IPN92H0033-SG4GK/IPN93L0090-SK1 (antibody, human IgG4 S228P, kappa, name in Kabat numbering, V domains shown, VL substitutions from IPN009VK3, Kabat numbering; also called IPN92H0033/IPN93L0090) VH: EVMLVESGGGLVKPGGSLRLSCAASGFTFSNYAMSWVRQAPGKGLEWVATISSGGSHTYYLDSVKGRFTISRDNSKDTLYLQMNSLRAEDTALYYCARLFTGHAMDYWGQGTLVTVSS VL: QIVLTQSPATLSLSPGERATLSCTASSSVSSSKLHWYQQKPGKAPKLWIYSTSNLASGVPSRFSGSGSGTDYTLTISSLQPEDFATYYCHQYYRLHPITFGQGTKLEIKR
0.00589	445000	1.58	6.4	13.2	3.23	–	–	C1_IPN92H0147-SG4GK/IPN93L0024-SK1 (antibody, human IgG4 S228P, kappa, name in Kabat numbering, V domains shown, Substitutions from IPN009VH2, Kabat numbering; also called IPN92H0147/IPN93L0024) VH: EVMLVESGGGLVKPGGSLRLSCAASGFTFSNYAMSWVRQAPGKGLEWVATISSGGSHDYYLDSVKGRFTISRDNSKDTLYLQMNSLRAEDTALYYCARLFTGHAMDYWGQGTLVTVSS VL: QIVLTQSPATLSLSPGERATLSCTASSSVSSSYLHWYQQKPGKAPKLWIYSTSNLASGVPSRFSGSGSGTDYTLTISSLQPEDFATYYCHQYYRLHPITFGQGTKLEIKR
0.00634	530000	1.28	4.5	12	3.43	2.67	7.8e+08	C1_IPN92H0091-SG4GK/IPN93L0024-SK1 (antibody, human IgG4 S228P, kappa, name in Kabat numbering, V domains shown, Substitutions from IPN009VH2, Kabat numbering; also called IPN92H0091/IPN93L0024) VH: EVMLVESGGGLVKPGGSLRLSCAASGFTFSNYAKSWVRQAPGKGLEWVATISSGGSHTYYLDSVKGRFTISRDNSKDTLYLQMNSLRAEDTALYYCARLFTGHAMDYWGQGTLVTVSS VL: QIVLTQSPATLSLSPGERATLSCTASSSVSSSYLHWYQQKPGKAPKLWIYSTSNLASGVPSRFSGSGSGTDYTLTISSLQPEDFATYYCHQYYRLHPITFGQGTKLEIKR
0.0129	814000	2.86	5	15.9	9.09	0.00651	717000	C1_IPN92H0080-SG4GK/IPN93L0024-SK1 (antibody, human IgG4 S228P, kappa, name in Kabat numbering, V domains shown, Substitutions from IPN009VH2, Kabat numbering; also called IPN92H0080/IPN93L0024) VH: EVMLVESGGGLVKPGGSLRLSCAASGFTFSNRAMSWVRQAPGKGLEWVATISSGGSHTYYLDSVKGRFTISRDNSKDTLYLQMNSLRAEDTALYYCARLFTGHAMDYWGQGTLVTVSS VL: QIVLTQSPATLSLSPGERATLSCTASSSVSSSYLHWYQQKPGKAPKLWIYSTSNLASGVPSRFSGSGSGTDYTLTISSLQPEDFATYYCHQYYRLHPITFGQGTKLEIKR
0.022	1.85e+06	0.79	1.7	11.9	5.43	0.00344	633000	C1_IPN92H0061-SG4GK/IPN93L0024-SK1 (antibody, human IgG4 S228P, kappa, name in Kabat numbering, V domains shown, Substitutions from IPN009VH2, Kabat numbering; also called IPN92H0061/IPN93L0024) VH: EVMLVESGGGLVKPGGSLRLSCAASGFTKSNYAMSWVRQAPGKGLEWVATISSGGSHTYYLDSVKGRFTISRDNSKDTLYLQMNSLRAEDTALYYCARLFTGHAMDYWGQGTLVTVSS VL: QIVLTQSPATLSLSPGERATLSCTASSSVSSSYLHWYQQKPGKAPKLWIYSTSNLASGVPSRFSGSGSGTDYTLTISSLQPEDFATYYCHQYYRLHPITFGQGTKLEIKR
0.0265	1.13e+06	1.54	6.4	23.4	5.65	0.00317	562000	C1_IPN92H0144-SG4GK/IPN93L0024-SK1 (antibody, human IgG4 S228P, kappa, name in Kabat numbering, V domains shown, Substitutions from IPN009VH2, Kabat numbering; also called IPN92H0144/IPN93L0024) VH: EVMLVESGGGLVKPGGSLRLSCAASGFTFSNYAMSWVRQAPGKGLEWVATISSGGSKTYYLDSVKGRFTISRDNSKDTLYLQMNSLRAEDTALYYCARLFTGHAMDYWGQGTLVTVSS VL: QIVLTQSPATLSLSPGERATLSCTASSSVSSSYLHWYQQKPGKAPKLWIYSTSNLASGVPSRFSGSGSGTDYTLTISSLQPEDFATYYCHQYYRLHPITFGQGTKLEIKR
0.00799	610000	2.26	3.8	13.1	7.71	0.00542	703000	C1_IPN92H0117-SG4GK/IPN93L0024-SK1 (antibody, human IgG4 S228P, kappa, name in Kabat numbering, V domains shown, Substitutions from IPN009VH2, Kabat numbering; also called IPN92H0117/IPN93L0024) VH: EVMLVESGGGLVKPGGSLRLSCAASGFTFSNYAMSWVRQAPGKGLEWVATISQGGSHTYYLDSVKGRFTISRDNSKDTLYLQMNSLRAEDTALYYCARLFTGHAMDYWGQGTLVTVSS VL: QIVLTQSPATLSLSPGERATLSCTASSSVSSSYLHWYQQKPGKAPKLWIYSTSNLASGVPSRFSGSGSGTDYTLTISSLQPEDFATYYCHQYYRLHPITFGQGTKLEIKR
0.0162	838000	2.6	5.7	19.3	8.75	0.0052	594000	C1_IPN92H0079-SG4GK/IPN93L0024-SK1 (antibody, human IgG4 S228P, kappa, name in Kabat numbering, V domains shown, Substitutions from IPN009VH2, Kabat numbering; also called IPN92H0079/IPN93L0024) VH: EVMLVESGGGLVKPGGSLRLSCAASGFTFSNKAMSWVRQAPGKGLEWVATISSGGSHTYYLDSVKGRFTISRDNSKDTLYLQMNSLRAEDTALYYCARLFTGHAMDYWGQGTLVTVSS VL: QIVLTQSPATLSLSPGERATLSCTASSSVSSSYLHWYQQKPGKAPKLWIYSTSNLASGVPSRFSGSGSGTDYTLTISSLQPEDFATYYCHQYYRLHPITFGQGTKLEIKR
0.0496	2.58e+06	1.36	4.1	19.2	6.4	0.003	469000	C1_IPN92H0145-SG4GK/IPN93L0024-SK1 (antibody, human IgG4 S228P, kappa, name in Kabat numbering, V domains shown, Substitutions from IPN009VH2, Kabat numbering; also called IPN92H0145/IPN93L0024) VH: EVMLVESGGGLVKPGGSLRLSCAASGFTFSNYAMSWVRQAPGKGLEWVATISSGGSRTYYLDSVKGRFTISRDNSKDTLYLQMNSLRAEDTALYYCARLFTGHAMDYWGQGTLVTVSS VL: QIVLTQSPATLSLSPGERATLSCTASSSVSSSYLHWYQQKPGKAPKLWIYSTSNLASGVPSRFSGSGSGTDYTLTISSLQPEDFATYYCHQYYRLHPITFGQGTKLEIKR
